Experimental data reported in patent publication US20070066547.

Experiments:
[1] = test system: HIV-1 Ba-L virus (gp120) (Human immunodeficiency virus 1 (Ba-L)); experiment: cell_activity; conditions: 2'-F pyrimidines (U, C)
[2] = test system: HIV-1 Ba-L break-through clones after B4 selection (gp120) (Human immunodeficiency virus 1 (Ba-L)); experiment: cell_activity; conditions: 2'-F pyrimidines (U, C); 100 nM aptamer; all four break-through clones neutralised
[3] = test system: gp120 envelope glycoprotein, HIV-1 Ba-L (SU) (Human immunodeficiency virus 1 (Ba-L)); experiment: competition; conditions: 2'-F pyrimidines (U, C); at highest aptamer concentration, no CD4; 48d inhibited at nM with CD4; CG10 and sCD4 binding not inhibited

Question: For “AUGACGUACCCGCACAAGCCACCACAAGUCUUAAUCGCGCCACCCUUGC [B84]”, which activity (log10 IU/ml reduction) ([1]; 100 nM aptamer, PBMC TCID50) is on record?
Answer: > 4

Question: Which results are given for “GAGCGGUUAAGGGAGAUUUAGGCAGCAGCUUGGACAGUGUAUCGGCUGAG [B4]”?
Answer: IC50 ([1]; neutralisation in human PBMC, about 5 log10 at 100 nM): < 1 nM; activity (log10 IU/ml reduction) [2]: > 4; binding signal (% inhibition of mAb 17b binding) [3]: 50
